In the Human Domainome abundance scans (Beltran et al. 2025):
± gives the uncertainty stated by the source.

B1: Transcription elongation factor A N-terminal and central domain-containing protein, residues 30 to 77; numbered along this chain, Q8N8B7 (parent)
chain: LTELETIYVTKEHLQETDVVRAVYRVLKNCPSVALKKKAKCLLSKWKA
B2: Nuclear receptor subfamily 4 group A member 2, residues 260 to 336; numbered along this chain, P43354 (parent)
chain: EGLCAVCGDNAACQHYGVRTCEGCKGFFKRTVQKNAKYVCLANKNCPVDKRRRNRCQYCRFQKCLAVGMVKEVVRTD

Variants of: B1
Assay: abundance fitness (aPCA) (normalised: wild type 0, dead -1); higher = more abundant; growth selection in yeast, the domain comes from the species named
Conditions: Homo sapiens

Abundance fitness, by site and new letter:
L4: K 0.272 ± 0.094, P 0.279 ± 0.11, V -0.23 ± 0.072, D 0.257 ± 0.092, E 0.173 ± 0.072, Q 0.142 ± 0.11, S 0.216 ± 0.071, H 0.025 ± 0.089, M 0.022 ± 0.095, F -0.044 ± 0.1, T 0.269 ± 0.1, N 0.469 ± 0.1, I -0.174 ± 0.14, Y -0.325 ± 0.12, R 0.11 ± 0.058, C -0.51 ± 0.095, A 0.17 ± 0.083
E5: S -0.809 ± 0.12, K -0.393 ± 0.13, L -0.28 ± 0.08, H -0.346 ± 0.18, Y -0.604 ± 0.25, A -0.235 ± 0.12, R -0.769 ± 0.1, M -0.643 ± 0.11, I -0.48 ± 0.12, D -0.186 ± 0.12, N -0.587 ± 0.17, C -0.897 ± 0.17, Q -0.498 ± 0.18, T -1.17 ± 0.23, G -0.775 ± 0.089, V -0.446 ± 0.1, P -0.663 ± 0.15
L1: T 0.251 ± 0.3, W -0.554 ± 0.18, M 0.235 ± 0.39, F -0.001 ± 0.25, V -0.379 ± 0.14, C -0.162 ± 0.15, Y -0.521 ± 0.21, S -0.501 ± 0.31, Q 0.202 ± 0.19, R -0.202 ± 0.33, G 0.363 ± 0.23
T2: M -0.461 ± 0.16, D 0.107 ± 0.17, N 0.036 ± 0.25, P -0.629 ± 0.15, L -0.389 ± 0.1, Q -0.177 ± 0.11, R 0.011 ± 0.08, K 0.11 ± 0.12, V -0.813 ± 0.15, A -0.385 ± 0.11, F -0.483 ± 0.2, E 0.27 ± 0.12, S 0.198 ± 0.11, C -0.501 ± 0.18, I -0.369 ± 0.13, Y -0.078 ± 0.18, W -0.711 ± 0.18, G -0.078 ± 0.12
E3: Y -0.207 ± 0.16, R -0.24 ± 0.083, K -0.195 ± 0.12, C 0.159 ± 0.11, P -0.45 ± 0.12, G -0.416 ± 0.074, Q -0.222 ± 0.17, V -0.102 ± 0.081, H -0.696 ± 0.43, F 0.477 ± 0.16, M -0.045 ± 0.16, W 0.305 ± 0.084, S -0.149 ± 0.11, D -0.209 ± 0.12, L -0.07 ± 0.095, T -0.464 ± 0.15, I -0.112 ± 0.26, N -0.001 ± 0.46
T6: E 0.126 ± 0.1, D 0.094 ± 0.1, G -0.024 ± 0.063, I -0.891 ± 0.27, A -0.355 ± 0.086, F -0.23 ± 0.12, H -0.147 ± 0.15, C -0.262 ± 0.1

Variants of: B2
Assay: as above
Conditions: Homo sapiens

Abundance fitness: each site, then its substitutions
V73: H 0.014 ± 0.32, A -0.258 ± 0.076, E -0.063 ± 0.086, D -0.105 ± 0.14, G -0.024 ± 0.033, R -0.099 ± 0.091, C -0.131 ± 0.071, T 0.274 ± 0.43, F 0.02 ± 0.074, S -0.305 ± 0.17, W -0.104 ± 0.053, L -0.065 ± 0.08, M -0.032 ± 0.17
Q62: W -0.345 ± 0.077, K 0.079 ± 0.28, L -0.137 ± 0.062, I -0.241 ± 0.23, C -0.153 ± 0.064, R -0.234 ± 0.074, S 0.018 ± 0.12, F -0.31 ± 0.14, V -0.137 ± 0.048, N -0.38 ± 0.34, G -0.297 ± 0.041, E -0.245 ± 0.17, A -0.095 ± 0.11, D -0.139 ± 0.23, M 0.079 ± 0.12
R60: W 0.014 ± 0.05, V 0.01 ± 0.044, C 0.101 ± 0.066, G -0.648 ± 0.052, M 0.053 ± 0.14, I -0.355 ± 0.3, S -0.033 ± 0.092, E -0.651 ± 0.18, F -0.115 ± 0.12, L 0.047 ± 0.071
V67: M -0.035 ± 0.15, W -0.706 ± 0.098, A -0.029 ± 0.063, C -0.114 ± 0.072, G -0.261 ± 0.04, D -0.728 ± 0.31, R -0.134 ± 0.073, K 0.086 ± 0.23, F -0.449 ± 0.13, L -0.078 ± 0.058, S -0.097 ± 0.11, H -0.088 ± 0.3, E -0.017 ± 0.077, T -0.06 ± 0.14, I 0.058 ± 0.12
V74: A -0.1 ± 0.1, W -0.208 ± 0.066, K -0.025 ± 0.31, C -0.098 ± 0.071, D 0.131 ± 0.13, I 0.091 ± 0.13, G -0.013 ± 0.039, F -0.148 ± 0.13, S -0.101 ± 0.12, L -0.052 ± 0.065, R -0.118 ± 0.11
V70: K -0.208 ± 0.43, F -0.095 ± 0.071, E 0.062 ± 0.096, S -0.053 ± 0.097, M -0.055 ± 0.18, R -0.013 ± 0.064, L -0.023 ± 0.058, W -0.255 ± 0.055, I 0.102 ± 0.14, A 0.06 ± 0.062, P -0.197 ± 0.18, G -0.017 ± 0.034
R75: D -0.136 ± 0.12, E 0.094 ± 0.087
